Measurements from patent US20210213134A1, “THIOL-BASED MULTIVALENT DRUG DELIVERY COMPOSITIONS” (ORPRO THERAPEUTICS, INC., priority 2018, published 2021).
“Also recorded” adds a separate entry of the source.

How the values were obtained:
[1] = target: T1, insulin disulfides (heterodimeric insulin) (Homo sapiens, UniProt P01308); assay: single-turnover insulin protein disulfide reduction assay (RP-HPLC of insulin heterodimer peak); assay type: biochemical; design: % reduction: concentration or dose not given beside the values; details: for % reduction / insulin heterodimer peak (RP-HPLC): pH 8
T1 construct: fully disulfide-bonded heterodimeric insulin
Experimental: Left side of FIG. 1—polyacrylamide gel electrophoresis of native human thioredoxin-1 (TRX). Lane 1: Molecular weight standards; Lane 2: Oxidized TRX; Lane 3: Oxidized TRX following reaction with dithiothreitol (DTT); Lane 4: Oxidized TRX following reaction with reduced glutathione (GSH); Lane 5: Oxidized TRX following reaction with GSH followed by DTT. Right side of FIG. 1—TRX was oxidized by exposure to ambient air for one week then incubated with either DTT or GSH at pH 8 for 1 hour followed by purification over a size exclusion column to remove unreacted free DTT or GSH after which the TRX was collected and used in a single-turnover insulin protein-disulfide reduction assay. Oxidized TRX (bottom line), TRX reduced with DTT (top line) or TRX reduced with GSH (middle line) were incubated with fully disulfide-bonded heterodimeric insulin at pH 8. After 30 min, 60 min and 120 minutes aliquots were taken and diluted with 0.1% TFA and 17 uM (final) iodoacetic acid and analyzed over RP-HPLC. Absorbance was monitored at 214 nm and the peak area of the insulin heterodimer fraction was determined at each time point to quantify TRX protein disulfide-reducing activity.
C35STRX was oxidized and Lys residues were conjugated to an azido-PEG linker. The conjugated material was then reduced and tested for molecular weight using SDS-PAGE (FIG. 5D) and MALDI-TOF (FIG. 5E) and activity assessed using a single-turnover insulin protein disulfide reduction assay. From the gel and MALDI-TOF results there is no free C35STRX; however, the conjugated material retained about 33% of its activity in the insulin assay as compared to unreacted reduced C35STRX. See FIGS. 5A-5E and their descriptions above.
Insulin Activity Assay with C35STRX and Azido-C35STRX: C35STRX OD280 was 11.8, corresponding to a concentration of 1.69 mM. C35STRX a OD280 was 15, corresponding to a concentration of 2.14 mM. Azido-C35STRX OD280 was 4.0, corresponding to a concentration of 0.57 mM. pH 8 Insulin stock: […] of Tris pH8 and 572 µL H2O and 25 µL of insulin (10 mg/mL) and 10 µL of 0.5 M EDTA. C35STRX stock was 0.5 mM. Azido-C35STRX stock was 0.5 mM concentration.
The reaction was stopped by addition of 10 µL of 1 M iodoacetic acid and 400 µL of 0.1% TFA. Samples were analyzed by RP-HPLC for changes in the insulin heterodimer peak.

[2] = DTNB assay (percent reduction state, free sulfhydryl); assay type: physicochemical; details: Table 1
Experimental: C35STRX-antibiotic conjugates are dissolved in PBS to the original volume before lyophilization and assayed for stability over seven days in comparison to non-conjugated reduced C35STRX. C35STRX-antibiotic conjugate concentration is measured by BCA protein assay (Pierce). […] Degradation/aggregation of C35STRX-antibiotic conjugates is determined by the percentage of C35STRX-antibiotic conjugate monomers assayed by SEC using an Agilent 1100 HPLC system and a BioBasic SEC-300 250×4.6 column (ThermoScientific) with a 40 mM Na acetate, 450 mM Na chloride 2 mM EDTA (pH 5.5) buffer at a flow rate 0.350 mL/min and detection by absorbance at 280 nm (A280).
Codon-optimized synthetic oligonucleotides encoding Lys to Ala mutants of C35STRX cloned into vector pD861 (Atum, Newark, Calif.) are expressed solubly in BL21 ΔrhaB E. coli under rhamnose induction (0.1% w/v, 26 deg C.) in APF-LB medium with 0.05% w/v glucose substrate at an O.D.600 of 0.8 in 2.8 L Fernbach shake flasks at NRC (Montreal Canada). Following cell pellet lysis (EmulsiFlex-C3, Avestin, Ottawa Canada) protein is purified from clarified extracts using anion exchange chromatography (FPLC, Akta) and 5 kDa ultrafiltration/diafiltration (UF/DF). […] Physical characterization: C35S(KA)TRX concentration is measured by BCA Protein assay (Pierce).

[3] = test system: human primary bronchial epithelia from CF and normal donors; assay type: cell-based
rats = assay: acute aerosol toxicity (nebulizer); assay type: in vivo
[4] = test system: human airway mucus on epithelia; assay: normalization of mucociliary transport in human airway mucus on epithelia; assay type: cell-based
target proteins = assay: disulfide linkage to target proteins in vitro by HPLC and gel-shift; assay type: binding
[5] = test system: extracellular airway mucus; assay: immunohistochemical detection of thioredoxin after IT delivery to rat airways; assay type: in vivo; details: intratracheal (IT) delivery, IHC
Excerpt: FIG. 4 Immunohistochemical detection of thioredoxin following IT delivery to rat airways via Penn-Century micro-sprayer. […] Animals were sacrificed 4 hr post-dose and excised lungs fixed, sectioned and analyzed by IHC for immunodetection of thioredoxin.
Conversion of the thioredoxin active site to a monothiol allows thioredoxin homologue protein to remain covalently attached to targeted disulfides once it has reacted. […] Reduced thioredoxin homologue protein can remain bound to extracellular airway mucus for at least 4 hours following intratracheal (IT) delivery to normal rats with normal mucus as visualized by immunohistochemical detection (brown staining; FIG. 4, Top) using anti-human thioredoxin antisera. […] While time points later than 4 hours were not included in this study, normalization of mucociliary transport in human airway mucus on epithelia for up to 24 hours is observed confirming similar residence time/mucin binding duration for mucoadhesive conjugates.
Conversion of the thioredoxin active site to a reduced Cys32 monothiol allows thioredoxin variants to remain covalently attached to targeted disulfides once reacted. […]

rat = details: in vivo
mice = details: mouse, in vivo
porcine gastric mucin = assay: mucin binding direct ELISA; details: reduced biotinylated conjugate, various mucin concentrations
Experimental: To establish the feasibility of covalently binding conjugated monocysteinic active site Cys32-Ser35 thioredoxin (C35STRX) to mucins, conjugation of C35STRX via its N-terminal NH2 to a model payload (biotin) using EZ-Link™ Sulfo-NHS-SS-Biotin (ThermoFisher) was carried out. Dithiothreitol (DTT, 0.1 M) was used to generate active C35STRX conjugates by reduction of the C35STRX active site Cys. Following DTT removal (NAPS column, GE Healthcare), the mucin binding ability of reduced biotinylated 0.02 C35STRX was evaluated by direct ELISA using 96 well plates 0 (Costar 3370) coated with 100 μl of various concentrations of porcine gastric mucin (Sigma) in 100 mM Tris-HCl buffer (pH 9). 100 μL of biotinylated C35STRX in 50 mM Tris (pH 8) and 1 mM EDTA was then added and incubated for 2 hours, with washes performed between each step. 50 μL of avidin-horseradish peroxidase (HRP) was added and incubated for 30 min followed by 50 μL of tetramethylbenzidine (TMB) substrate. Reactions were stopped after 5 min with 100 μl 1N sulfuric acid. Absorbance at […] (Molecular Devices SpectraMax i3) was plotted against mucin concentration.

[6] = literature values; cited from earlier work

T1 sequence (P01308 25-54 limits assumed): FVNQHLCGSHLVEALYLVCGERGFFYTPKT
T1 sequence (P01308 90-110 limits assumed): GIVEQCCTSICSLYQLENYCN

Molecule	% reduction ([1]; Table 3, 0 min) [%]	insulin heterodimer peak (RP-HPLC) ([1]; Table 3, 0 min)	% reduction ([1]; Table 3, 90 min) [%]	insulin heterodimer peak (RP-HPLC) ([1]; Table 3, 90 min)	% reduction ([1]; Table 4, 0 min) [%]	insulin heterodimer peak (RP-HPLC) ([1]; Table 4, 0 min)	% reduction ([1]; Table 4, 90 min) [%]	insulin heterodimer peak (RP-HPLC) ([1]; Table 4, 90 min)	% reduced [2] [%]	further results
Azido-C35STRX (conjugate, UniProt P10599 2-105, looked up, variant C35S, azido group) Thioredoxin: VKQIESKTAFQEALDAAGDKLVVVDFSATWCGPSKMIKPFFHSLSEKYSNVIFLEVDVDDCQDVASECEVKCMPTFQFFKKGQKVGEFSGANKEKLEATINELV	0	8959.8	32.69	6030.6	0	10213	33.07	6835	106.6	activity retained in the insulin assay as compared to unreacted reduced C35STRX ([1]; up to 11 azido-PEG linkers on Lys): about 33%
C35STRX: monocysteinic active site Cys32-Ser35 variant of human thioredoxin-1, mucus-targeting scaffold (protein) MVKQIESKTAFQEALDAAGDKLVVVDFSATWCGPSKMIKPFFHSLSEKYSNVIFLEVDVDDCQDVASECEVKCMPTFQFFKKGQKVGEFSGANKEKLEATINELV	0	8515.4	99.40	50.2	0	10602	97.70	243.2	109.4	adverse inflammatory effects in vitro [3]: No adverse inflammatory effects; toxic effects in normal animals treated by aerosol (rats; normal animals, aerosol, high dose levels): lack of observed toxic effects; local or systemic toxicity, histopathology (rats; rats dosed acutely, aerosol via nebulizer, highest delivered concentration 40 mg/kg): No local or systemic toxicity or histopathological anomalies; duration of normalization of mucociliary transport [4]: up to 24 hours; disulfide linkage to target proteins (target proteins): stable disulfide linkages to target proteins; time remaining bound to extracellular airway mucus ([5]; normal rats): at least 4 hours; adverse inflammatory effects in lavage fluid (rat): No adverse inflammatory effects; adverse inflammatory effects in lavage fluid (mice): No adverse inflammatory effects
biotinylated C35STRX (conjugate) MVKQIESKTAFQEALDAAGDKLVVVDFSATWCGPSKMIKPFFHSLSEKYSNVIFLEVDVDDCQDVASECEVKCMPTFQFFKKGQKVGEFSGANKEKLEATINELV	–	–	–	–	–	–	–	–	–	mucin binding (porcine gastric mucin): bind mucin in a dose-dependent fashion; also recorded: maintained full mucin binding activity with linear kinetics
Oxidized (inactive) C35STRX: oxidized, inactive form of C35STRX used as control (protein) MVKQIESKTAFQEALDAAGDKLVVVDFSATWCGPSKMIKPFFHSLSEKYSNVIFLEVDVDDCQDVASECEVKCMPTFQFFKKGQKVGEFSGANKEKLEATINELV	–	–	–	–	–	–	–	–	–	binding to mucus or the epithelial surface ([5]; rats, 4 hr post-dose): did not bind mucus or the epithelial surface
TRX: endogenously secreted human epithelial protein thioredoxin-1, small (12 kDa) redox enzyme (protein) MVKQIESKTAFQEALDAAGDKLVVVDFSATWCGPCKMIKPFFHSLSEKYSNVIFLEVDVDDCQDVASECEVKCMPTFQFFKKGQKVGEFSGANKEKLEATINELV	–	–	–	–	–	–	–	–	–	pKa of catalytic Cys thiol [6]: 6.2
